According to paper doi:10.1101/2022.01.13.476167v2:

Legend:
purified protein [1] = substrate: CCCCCCCC(=O)N[C@H]1CCOC1=O; assay: purified protein; details: 0.05 M phosphate buffer, pH 7.0, 35 °C
purified protein [2] = substrate: CCCCCC(=O)N[C@H]1CCOC1=O; assay: purified protein; details: 0.05 M phosphate buffer, pH 7.0, 35 °C

B1: ecPGA (Escherichia coli penicillin G acylase) (Escherichia coli) (protein)
chain 1: EQSSSEIKIVRDEYGMPHIYANDTWHLFYGYGYVVAQDRLFQMEMARRSTQGTVAEVLGKDFVKFDKDIRRNYWPDAIRAQIAALSPEDMSILQGYADGMNAWIDKVNTNPETLLPKQFNTFGFTPKRWEPFDVAMIFVGTMANRFSDSTSEIDNLALLTALKDKYGVSQGMAVFNQLKWLVNPSAPTTIAVQESNYPLKFNQQNSQTA
chain 2: SNMWVIGKSKAQDAKAIMVNGPQFGWYAPAYTYGIGLHGAGYDVTGNTPFAYPGLVFGHNGVISWGSTAGFGDDVDIFAERLSAEKPGYYLHNGKWVKMLSREETITVKNGQAETFTVWRTVHGNILQTDQTTQTAYAKSRAWDGKEVASLLAWTHQMKAKNWQEWTQQAAKQALTINWYYADVNGNIGYVHTGAYPDRQSGHDPRLPVPGTGKWDWKGLLPFEMNPKVYNPQSGYIANWNNSPQKDYPASDLFAFLWGGADRVTEIDRLLEQKPRLTADQAWDVIRQTSRQDLNLRLFLPTLQAATSGLTQSDPRRQLVETLTRWDGINLLNDDGKTWQQPGSAILNVWLTSMLKRTVVAAVPMPFDKWYSASGYETTQDGPTGSLNISVGAKILYEAVQGDKSPIPQAVDLFAGKPQQEVVLAALEDTWETLSKRYGNNVSNWKTPAMALTFRANNFFGVPQAAAEETRHQAEYQNRGTENDMIVFSPTTSDRPVLAWDVVAPGQSGFIAPDGTVDKHYEDQLKMYENFGRKSLWLTKQDVEAHKESQEVLHVQR
- Km (purified protein [1]): 700 ± 40 µM
- kcat (purified protein [1]): 0.0085 ± 0.0003 s⁻¹
- Km (purified protein [2]): 590 ± 70 µM
- kcat (purified protein [2]): 0.0090 ± 0.0003 s⁻¹
